Laboratory results published in patent US6903183B1, “Compositions and methods for regulation of steroidogenesis” (Texas Tech University Health Services Center, priority 1996, dated 2005).

How the values were obtained:
[1] = molecular target: T1, StAR (Mus musculus, UniProt P51557); assay: Fluorescent sterol binding assay
T1 construct: made in house; host or cells: three sources: dbcAMP-stimulated MA-10 cells (endogenous); COS 1 cells transfected with StAR cDNA; E. coli with pKK233-2/StAR
T1 sequence (P51557 63-284): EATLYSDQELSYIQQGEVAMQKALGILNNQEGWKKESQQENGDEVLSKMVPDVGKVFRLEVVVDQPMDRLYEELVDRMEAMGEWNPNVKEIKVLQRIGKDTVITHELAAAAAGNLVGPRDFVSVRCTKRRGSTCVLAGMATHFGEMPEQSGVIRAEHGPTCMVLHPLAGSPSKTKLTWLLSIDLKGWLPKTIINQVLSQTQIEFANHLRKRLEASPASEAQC

[2] = molecular target: T1, StAR; assay: Cholesterol binding to StAR (filtration radioassays, native PAGE)
From the text: For these studies StAR proteins were obtained from three sources; (1) MA-10 cells stimulated with dbAMP; (2) monkey kidney cells (COS 1) transfected with StAR cDNA; and (3) expression of a recombinant pKK233-2/StAR plasmid in E. coli. Filtration radioassays and Steady-State (native) polyacrylamide gel electrophoresis were used to detect cholesterol binding to StAR. […] Thus, this study has provided evidence that cholesterol can bind to the StAR protein with high affinity.

[3] = test system: COS 1 cells; assay: Steroid production in COS 1 cells expressing StAR; assay type: cell-based, monkey; conditions: transient transfection of COS 1 cells, absence of hormone stimulation
From the text: Testicular tissue of two patients and genome DNA of a third patient with LCAH have mutations in the gene for StAR (Lin et al., Science, 267:1828-1831, 1995) (incorporated herein by reference). […] These truncations were confirmed by Western analysis following expression of the mutated cDNAs in COS cells. Virtually none of the precursor form of StAR expressed from the cDNA of these patients was converted to the mature mitochondrial form.
Also, increases in StAR mRNA and protein closely paralleled steroid production indicating a temporal relationship in these parameters.

[4] = test system: mitochondria isolated from MA-10 mouse Leydig tumor cells; assay: In vitro reconstituted system: pregnenolone synthesis by isolated mitochondria; assay type: biochemical; conditions: protein added to isolated mitochondria
From the text: Rat heart mitochondria were used for the import assay with bovine StAR, indicating import of StAR is not dependent upon factors specific to mitochondria isolated from steroidogenic tissues. The ability of StAR to increase steroid production has also been confirmed in an in vitro reconstituted system.

[5] = test system: MA-10 cells; assay: Progesterone production in MA-10 cells transfected with the 30 kDa cDNA (radioimmunoassay); assay type: cell-based, mouse
From the text: Expression of the 30-kD Protein in MA-10 Cells and COS I Cells. The full length SalI-NotI 1456 base pair 30-kDa cDNA was subcloned into the eukaryotic expression vector, pCMV (Anderson, et al., 1989). MA-10 cells were transfected with DNA by a lipsome-mediated uptake using the LipofectAMINE reagent (Life Technologies, Inc. Gathersburg, Md.) (Hawley-Nelson, et al., 1993). Plasmid DNA used in transfection experiments were purified by CsCl density gradient followed by polyethylene glycol precipitation. The DNA was mixed with {fraction (1/10 )} the final volume of Waymouth's media minus serum and minus antibiotics (WAY^−) and added to an equal volume of WAY^− media containing the LipofectAMINE reagent. The DNA/lipid solution was gently mixed and incubated for 30 min at room temperature, then WAY^− media was added to achieve the final concentration of the DNA and LipofectAMINE reagent of 5 μg/ml and 20 μg/ml respectively. The cells were washed once with WAY^− media, incubated with transfection mix for 6 h, washed once with PBS, then incubated with Waymouth's plus 15% horse serum. The same procedure was used for transfection of COS 1 cells except Dulbecco's modified Eagle's media minus serum and antibiotics was used for the transfection media. For isolation of mitochondria for immunoblot analysis, cells were grown on 100-mm dishes. For progesterone production assays, MA-10 cells were plated into 96 well plates at 75,000 cells/well the day before the experiment. Typically, 8 wells each were transfected with either pCMV or pCMV+30-kDa cDNA for one experiment set.
Radioimmunoassay. 48 hours post-transfection, the growth medium was replaced with Waymouth's minus horse serum. After 6 h at 37° C. 5% CO2, progesterone was measured directly in the media by radioimmunoassay as previously described (Resko, et al., 1974). The progesterone antibody was obtained from Holly Hill Biologicals (Hillsboro, Oreg.).
MA-10 cells were transfected with the 30 kDa cDNA and progesterone production was measured as follows. The full-length cDNA was subcloned into the pCMW eukaryotic expression vector and transfected into MA-10 cells using LipofectAMINE (Life Technologies, Inc.). Cells (75,000 per well) were plated in a 96 well plate the day before transfection. The cells were incubated with the DNA/lipid transfection mixture for 6 hours, washed one time with PBS, and the incubated in Waymouths+15% horse serum. […] After 6 h, the medium was removed and progesterone was measured by radioimmunoassay. The cells were lysed directly in the wells with 0.1% SDS and protein was determined by the method of Bradford (1976). […] The transfected cells were not treated with hormone and progesterone was measured directly in the media after a 6 h incubation.

[6] = test system: COS 1 cells; conditions: expressed in COS1 cells (Lin et al., 1995); cited from earlier work

Molecule: C[C@H](CNc1ccc([N+](=O)[O-])c2nonc12)[C@H]1CC[C@H]2[C@@H]3CC=C4C[C@@H](O)CC[C@]4(C)[C@H]3CC[C@]12C [NBD-cholesterol]
- affinity of binding to StAR [1]: nanomolar range

Molecule: CC(C)CCC[C@@H](C)[C@H]1CC[C@H]2[C@@H]3CC=C4C[C@@H](O)CC[C@]4(C)[C@H]3CC[C@]12C [cholesterol]
- specific binding to StAR [2]: 20-40 % of the total binding

B1: StAR: LH-inducible mitochondrial 37 kDa precursor / 30 kDa mature protein, SEQ ID NO:2 (mouse) or 18 (human) (protein)
chain: MGQVRRRSSLLGSQLEATLYSDQELSYIQQGEVAMQKALGILNNQEGWKKESQQENGDEVLSKMVPDVGKVFRLEVVVDQPMDRLYEELVDRMEAMGEWNPNVKEIKVLQRIGKDTVITHELAAAAAGNLVGPRDFVSVRCTKRRGSTCVLAGMATHFGEMPEQSGVIRAEHGPTCMVLHPLAGSPSKTKLTWLLSIDLKGWLPKTIINQVLSQTQIEFANHLRKRLEASPASEAQC
- steroid production [3]: several fold increase
- pregnenolone synthesis [4]: time- and dose-dependent increase
- average rate of progesterone produced ([5]; MA-10 cells expressing the 30 kDa protein): 166 pg progesterone produced per mg protein per hour
- increase in progesterone production above cells transfected with vector alone ([5]; MA-10 cells, absence of hormone stimulation): 1.5-3.5
- increase in steroidogenesis ([5]; expression of 30 kDa protein in MA-10 cells versus pCMV vector alone): 1.5 to 3.7 fold
- constitutive steroid production versus basal parental MA-10 cells ([5]; stable transfected MA-10 cell lines constitutively synthesizing the 30 kDa protein): about 9 x
- increase in steroid production [6]: 8 fold
